From US7083932 (EUROSCREEN S A, dated 2006)

B1: synthetic heptadecapeptide Phe-Gly-Gly-Phe-Thr-Gly-Ala-Arg-Lys-Ser-Ala-Arg-Lys-Leu-Ala-Asn-Gln (nociceptin) (peptide)
peptide: FGGFTGARKSARKLANQ
B2: 1Tyr analogue of the synthetic heptadecapeptide (peptide)
peptide: YGGFTGARKSARKLANQ

Target: orphan receptor ORL1 (Opioid Receptor-Like 1) stably expressed in recombinant CHO(ORL1+) cells
Assay: cell-based or functional assay

Binder	inhibition of forskolin-induced accumulation of cAMP in recombinant CHO(ORL1+) cells, IC50 [nM]	inhibition of forskolin-induced accumulation of cAMP in CHO cells expressing the receptor, IC50 [nM]
B1	0.9	–
B2	–	1
